Among the data in article PMC7763939 are stoichiometry N values, retold here.

The target of assay [1] is PKSIII Mo29 Red (truncated/reduced type III polyketide synthase of Naganishia uzbekistanensis strain Mo29, without the 74 aa C-terminus extension) (Naganishia uzbekistanensis strain Mo29 (UBOCC-A-208024)). Nature of the assay: SEC + other: dynamic light scattering; Sephacryl-200 gel filtration column, 50 mM Tris-HCl pH 7.5, 200 mM NaCl, size calculated with marker; DLS on a DynaPro-801; monomer to dimer.

Assay [2] deals with PKSIII Mo29 Std (type III polyketide synthase of Naganishia uzbekistanensis strain Mo29, whole protein with the C-terminus extension) (Naganishia uzbekistanensis strain Mo29 (UBOCC-A-208024)). The assay is described as above.

On to “PKSIII Mo29 Red (truncated/reduced type III polyketide synthase of Naganishia uzbekistanensis strain Mo29, without the 74 aa C-terminus extension) (domain or fragment)”, for which the stoichiometry N in assay [1] is 2.

As to “PKSIII Mo29 Std (type III polyketide synthase of Naganishia uzbekistanensis strain Mo29, whole protein with the C-terminus extension) (enzyme)”, in assay [2], the stoichiometry N is 2.

Usually stoichiometry N stands for the number of molecules, sites or subunits per partner or assembly.
